The values below come from article PMC6365974, “Characterization of an Aldehyde Oxidoreductase From the Mesophilic Bacterium Aromatoleum aromaticum EbN1, a Member of a New Subfamily of Tungsten-Containing Enzymes” (Frontiers in Microbiology, 2019).

Data set [1] concerns c1ccc(C[n+]2ccc(-c3cc[n+](Cc4ccccc4)cc3)cc2)cc1. The data set can be described thus: purified protein. To be noted: artificial electron acceptor, phenylacetaldehyde as co-substrate, 100 mM Tris-HCl pH 8.0, 28°C, probably reacts at an Fe-S cluster.
The target in data set [2] is T1, AORAa (Aromatoleum aromaticum, UniProt Q5P143).
T1 construct: gene aorB; native heterohexamer α2β2γ2, ca. 280 kDa (subunits 66, 46, 17 kDa), purified from phenylalanine-grown Δpdh cells, no tag; with Iron-sulfur protein, aldehyde oxidoreductase small subunit AorA
The data set can be described thus: flavin fluorescence of supernatant of heat-denatured enzyme, phosphodiesterase treatment. To be noted: co-purified cofactor; site AorC (predicted). The class given is binding.

Substrate in data set [3]: CC=O
The data set can be described thus: purified protein. To be noted: electron acceptor benzyl viologen, 100 mM Tris-HCl pH 8.0, 28°C, site AorB (W-cofactor, predicted).

Substrate in data set [4]: O=Cc1ccccc1
The data set can be described thus: purified protein. To be noted: electron acceptor benzyl viologen, 100 mM Tris-HCl pH 8.0, 28°C, site AorB (W-cofactor, predicted).

Substrate in data set [5]: O=CCc1ccccc1
The data set can be described thus: purified protein. The following applies: electron acceptor benzyl viologen, 100 mM Tris-HCl pH 8.0, 28°C, site AorB (W-cofactor, predicted).

Substrate in data set [6]: NC(=O)c1ccc[n+]([C@@H]2O[C@H](COP(=O)(O)OP(=O)(O)OC[C@H]3O[C@@H](n4cnc5c(N)ncnc54)[C@H](O)[C@@H]3O)[C@@H](O)[C@H]2O)c1
The data set can be described thus: purified protein. Type of data set: biochemical, Aromatoleum aromaticum. The following applies: electron acceptor, phenylacetaldehyde as co-substrate, 100 mM Tris-HCl pH 8.0, 28°C, site AorC (FAD, predicted).

Data set [7] addresses T2, AorB, large W-cofactor binding subunit of aldehyde oxidoreductase AORAa from Aromatoleum aromaticum EbN1 (Aromatoleum aromaticum EbN1, UniProt Q5P143 1-616).
T2 construct: AorB, large subunit (66 kDa on SDS-PAGE) of the tungsten-containing aldehyde oxidoreductase of Aromatoleum aromaticum EbN1; also called large subunit; aorB gene product; source: purified from A. aromaticum EbN1 strain SR7Δpdh as part of AORAa (DEAE-sepharose, hydroxyapatite, Superdex 200)
T2 sequence (looked up): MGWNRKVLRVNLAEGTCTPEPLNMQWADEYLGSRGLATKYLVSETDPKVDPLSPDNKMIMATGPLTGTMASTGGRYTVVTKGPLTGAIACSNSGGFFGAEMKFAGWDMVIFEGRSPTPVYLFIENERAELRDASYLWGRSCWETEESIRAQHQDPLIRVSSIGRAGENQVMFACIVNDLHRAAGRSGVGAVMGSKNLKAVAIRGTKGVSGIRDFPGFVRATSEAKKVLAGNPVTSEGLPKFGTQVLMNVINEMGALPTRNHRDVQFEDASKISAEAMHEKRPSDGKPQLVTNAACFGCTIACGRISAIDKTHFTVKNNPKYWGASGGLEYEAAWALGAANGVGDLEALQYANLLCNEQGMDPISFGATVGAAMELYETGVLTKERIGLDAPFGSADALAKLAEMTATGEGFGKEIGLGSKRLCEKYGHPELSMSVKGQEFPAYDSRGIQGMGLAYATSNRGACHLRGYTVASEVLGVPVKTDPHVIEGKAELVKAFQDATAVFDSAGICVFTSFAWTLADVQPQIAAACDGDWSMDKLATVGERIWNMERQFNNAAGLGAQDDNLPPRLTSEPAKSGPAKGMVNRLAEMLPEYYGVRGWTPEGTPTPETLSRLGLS
The data set can be described thus: co-purification by enzyme activity (DEAE-sepharose, hydroxyapatite, Superdex 200 gel filtration); endogenous enzyme purified from cell extract under anoxic conditions, followed by AOR activity; subunits separated by SDS-PAGE and identified by MALDI-TOF of tryptic fragments. The following applies: partners not purified.

As for AORAa (Aromatoleum aromaticum EbN1), in data set [1], the Km (commonly the substrate concentration at which the rate is half of its maximum) came to 23 µM; the Vmax (in general, the top rate of the reaction or transport when substrate is in excess) was 21.2 µmol/min/mg; the kcat (usually the number of substrate molecules converted per active site and unit of time at saturation) came to 91 s⁻¹; the kcat/Km (in general, the turnover number divided by the Michaelis constant) came to 3.96e+06 M⁻¹ s⁻¹.
As for `Cc1cc2nc3c(=O)[nH]c(=O)nc-3n(C[C@H](O)[C@H](O)[C@H](O)COP(=O)(O)OP(=O)(O)OC[C@H]3O[C@@H](n4cnc5c(N)ncnc54)[C@H](O)[C@@H]3O)c2cc1C` [FAD], the “flavin fluorescence of supernatant of heat-denatured enzyme, phosphodiesterase t” value in data set [2] is reported as “The presence of FAD in AORAa was confirmed by fluorescence spectroscopy”.

B1: AORAa (Aromatoleum aromaticum EbN1) (protein)
chain: MGWNRKVLRVNLAEGTCTPEPLNMQWADEYLGSRGLATKYLVSETDPKVDPLSPDNKMIMATGPLTGTMASTGGRYTVVTKGPLTGAIACSNSGGFFGAEMKFAGWDMVIFEGRSPTPVYLFIENERAELRDASYLWGRSCWETEESIRAQHQDPLIRVSSIGRAGENQVMFACIVNDLHRAAGRSGVGAVMGSKNLKAVAIRGTKGVSGIRDFPGFVRATSEAKKVLAGNPVTSEGLPKFGTQVLMNVINEMGALPTRNHRDVQFEDASKISAEAMHEKRPSDGKPQLVTNAACFGCTIACGRISAIDKTHFTVKNNPKYWGASGGLEYEAAWALGAANGVGDLEALQYANLLCNEQGMDPISFGATVGAAMELYETGVLTKERIGLDAPFGSADALAKLAEMTATGEGFGKEIGLGSKRLCEKYGHPELSMSVKGQEFPAYDSRGIQGMGLAYATSNRGACHLRGYTVASEVLGVPVKTDPHVIEGKAELVKAFQDATAVFDSAGICVFTSFAWTLADVQPQIAAACDGDWSMDKLATVGERIWNMERQFNNAAGLGAQDDNLPPRLTSEPAKSGPAKGMVNRLAEMLPEYYGVRGWTPEGTPTPETLSRLGLS
For B1, in data set [3], the Km is 141 µM, the Vmax was 23.8 µmol/min/mg, the kcat is 103 s⁻¹ and the kcat/Km is 730000 M⁻¹ s⁻¹. For the same molecule, in data set [4], the Km was 67 µM, the Vmax was 21.4 µmol/min/mg, the kcat was 92 s⁻¹ and the kcat/Km is 1.38e+06 M⁻¹ s⁻¹. Besides, in data set [5], the Km was 82 µM, the Vmax was 18.9 µmol/min/mg, the kcat was 81 s⁻¹ and the kcat/Km is 990000 M⁻¹ s⁻¹. In data set [6], the Km was 63 µM, the Vmax was 12.5 µmol/min/mg, the kcat is 54 s⁻¹ and the kcat/Km was 860000 M⁻¹ s⁻¹.

B2: AorC, medium FAD-containing subunit of aldehyde oxidoreductase AORAa from Aromatoleum aromaticum EbN1 (natural protein, UniProt Q5P142 1-424, looked up)
chain: MKHVILGNGPAGVIAAETLRRAAPTDDILLFGSEDAPPYSRMAIPYLLEGNIDESGTWLRKSPGHFDRLRIHEMRGRAVSLDSERRRILFDDGHFESWDRLLIATGSHPVRPPIPGIDLPEVQTCWTLEDARAIARFATPGARVLQLGAGFIGCIIMEALAARGVELTVVEMGDRMVPRMMTPTAGGMIRKWVEDQGVRVVTNAGVSRIDCRASNDAPLDVTLSTGEVVVADLVIVAAGVAPNIAFLEATPVHVAKGVLVDDRLQTSVPGIFAAGDVAEAPDLFTGAHLVAAIQPNAADQARVAALNMAGHEARLKGVLAINVLDTLGLISSSFGQWWGEERERGGAGVEHVDEAAYRYLSLQFKDDVLIGATSIGLTEHVGALRGLIHGRVRLGEWKERLLHSPLQFVDAYIARSQQPMALVR
notes: AorC, medium-sized subunit (46 kDa on SDS-PAGE) of the tungsten-containing aldehyde oxidoreductase of Aromatoleum aromaticum EbN1; predicted FAD-containing; also called medium subunit; medium-sized subunit; source: purified from A. aromaticum EbN1 strain SR7Δpdh as part of AORAa (DEAE-sepharose, hydroxyapatite, Superdex 200)
Take B2: in data set [7], the binding result is recorded as “binds”.

B3: AorA, small subunit of aldehyde oxidoreductase AORAa from Aromatoleum aromaticum EbN1 (natural protein, UniProt Q5P144 1-158, looked up)
chain: MWKSLHIDPAKCTGCLQCEMACSYEHTGVINPSKSRIKVFSFEHEGRKVPYTCTQCTEAWCLHSCPVDAIRLDLTTGAKMVFEDTCVGCKVCTIACPFGTINYNQDTGKVQKCDLCEGDPACAKACPTAAITYIDADWTGLARMQAWAAKANTPASAA
notes: AorA, small subunit (17 kDa on SDS-PAGE) of the tungsten-containing aldehyde oxidoreductase of Aromatoleum aromaticum EbN1; predicted to contain four [Fe4S4] clusters; also called electron transfer subunit; aorA gene product; source: purified from A. aromaticum EbN1 strain SR7Δpdh as part of AORAa (DEAE-sepharose, hydroxyapatite, Superdex 200)
With B3, in data set [7], the binding result is listed as “binds”.
